One assay addresses T1, SEQ ID NO 101 (Homo sapiens (Human), UniProt P0DOX5 343-449 = IgG part).
T1 construct: also called Mutated CH3 domain of KB100 Chain B (mutations D399N, K439E, E357Q, T350V)
T1 constant: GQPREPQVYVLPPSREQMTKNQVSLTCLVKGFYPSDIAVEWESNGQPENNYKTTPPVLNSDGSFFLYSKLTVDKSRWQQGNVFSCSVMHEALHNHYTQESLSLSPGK
The assay can be described thus: co-expression of Chain A and Chain B vectors, SDS-PAGE and Western blot; heterodimer formation. Background: A western blot detects proteins with antibodies after separation by electrophoresis.

Another assay has as its target T2, SEQ ID NO 95 (Homo sapiens (Human), UniProt P0DOX5 343-449 = IgG part).
T2 construct: also called Mutated CH3 domain of KB118 Chain B (mutations D399N); K439E
T2 constant: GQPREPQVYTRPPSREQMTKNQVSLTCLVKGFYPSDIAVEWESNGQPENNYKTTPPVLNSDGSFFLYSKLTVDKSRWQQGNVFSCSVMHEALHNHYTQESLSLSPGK
The assay is described as above.

B1: SEQ ID NO 100 (other)
constant: GQPREPQVYVLPPSRQEMTKNQVSLTCLVEGFYPSDIAVEWESNGQPENNYKTTPPVLNSDGSFFLYSKLTVDKSRWQQGNVFSCSVMHEALHNHYTQKSLSLSPGK
notes: also called Mutated CH3 domain of KB099 Chain A (mutations D399N, K370E, E356Q, T350V)
Take B1: the binding result in the assay with SEQ ID NO 101 was “binds”.

B2: SEQ ID NO 102 (other)
constant: GQPREPQVYTLRPSRQEMTKNQVSLTCLVEGFYPSDIAVEWESNGQPENNYKTTPPVLNSDGSFFLYSKLTVDKSRWQQGNVFSCSVMHEALHNHYTQKSLSLSPGK
notes: also called Mutated CH3 domain of KB105 Chain A (mutations D399N, K370E, E356Q, P352R)
B2: in the assay with SEQ ID NO 95, the binding result is listed as “binds”.

B3: SEQ ID NO 103 (other)
constant: GQPREPQVYTLEPSRQEMTKNQVSLTCLVEGFYPSDIAVEWESNGQPENNYKTTPPVLNSDGSFFLYSKLTVDKSRWQQGNVFSCSVMHEALHNHYTQKSLSLSPGK
notes: also called Mutated CH3 domain of KB108 Chain A (mutations D399N, K370E, E356Q, P352E)
Consider B3, for which the binding result with SEQ ID NO 95 is “binds”.

The record behind these values is US20230242676A1 (KISOJI BIOTECHNOLOGY, published 2023).
